According to publication PMC9116133:

Legend:
[1] = target: truncated zymogen of histo-aspartic protease (pro-tHAP) (P. falciparum); assay: crystal structure
[2] = target: truncated zymogen of plasmepsin I (pro-tPMI) (P. falciparum); assay: SAXS
[3] = target: truncated zymogen of plasmepsin II, wild type (pro-tPMII) (P. falciparum); assay: SEC

truncated zymogen of histo-aspartic protease (pro-tHAP) (enzyme)
stoichiometry N [1]: 2

truncated zymogen of plasmepsin I (pro-tPMI) (enzyme)
stoichiometry N [2]: 2

truncated zymogen of plasmepsin II, wild type (pro-tPMII) (enzyme)
stoichiometry N [3]: 2
